Read-outs that look alike come from different tables or passages of the source.
Legend:
[1] = target: T1, recombinant human LRP1 cluster II (R&D Systems, amino acids 786-1165, with C-terminal Fc tag) (human, UniProt Q07954 786-1165); test: solid phase competition, EC50 against that of the mRAPc monomer
T1 construct: range 786-1165; Bought from R&D Systems; coated on plates; also called LRP1-C2; not shown: C-terminal Fc tag of the bought protein
T1 sequence (looked up): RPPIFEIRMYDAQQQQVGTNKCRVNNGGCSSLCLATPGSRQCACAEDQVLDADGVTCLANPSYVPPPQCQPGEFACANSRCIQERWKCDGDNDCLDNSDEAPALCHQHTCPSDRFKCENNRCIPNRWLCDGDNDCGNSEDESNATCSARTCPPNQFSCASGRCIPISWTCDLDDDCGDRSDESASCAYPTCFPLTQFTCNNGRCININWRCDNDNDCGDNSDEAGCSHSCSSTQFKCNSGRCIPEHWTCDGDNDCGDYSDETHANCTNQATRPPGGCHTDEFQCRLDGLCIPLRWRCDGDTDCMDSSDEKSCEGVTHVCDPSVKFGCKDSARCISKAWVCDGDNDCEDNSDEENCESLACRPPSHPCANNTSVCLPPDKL
Description: (§1) Control wells contained no added inhibitor. Wells were washed with TBS supplemented with 5 mM CaCl₂ and 0.05% Tween-20. […] Excess HRP conjugate was removed and wells washed. Color was developed using TMB reagents (BioRad, Hercules, Calif.).

[2] = target: T1, recombinant human LRP1 cluster II (R&D …); test: as above; remark: listed apart in the source
Description: as §1

[3] = target: T1, recombinant human LRP1 cluster II (R&D …); test: solid phase competition, inhibition of 2 nM RAP d3 binding to immobilized LRP1-C2
Description: as §1

[4] = target: T1, recombinant human LRP1 cluster II (R&D …); test: solid phase competition, inhibitor preincubated with immobilized LRP1-C2, then 2 nM RAP d3
Description: as §1

B1: mature RAP (full-length receptor-associated protein) (ligand)
chain: YSREKNQPKPSPKRESGEEFRMEKLNQLWEKAQRLHLPPVRLAELHADLKIQERDELAWKKLKLDGLDEDGEKEARLIRNLNVILAKYGLDGKKDARQVTSNSLSGTQEDGLDDPRLEKLWHKAKTSGKFSGEELDKLWREFLHHKEKVHEYNVLLETLSRTEEIHENVISPSDLSDIKGSVLHSRHTELKEKLRSINQGLDRLRRVSHQGYSTEAEFEEPRVIDLWDLAQSANLTDKELEAFREELKHFEAKIEKHNHYQKQLEIAHEKLRHAESVGDGERVSRSREKHALLEGRTKELGYTVKKHLQDLSGRISRARHNEL
notes: also called full-length RAP
relative to monomer [1]: 36 fold | relative to monomer [2]: 40 fold | EC50 [3]: 0.8 nM | EC50 [4]: 0.5 nM

— US20120251444A1 (RAPTOR PHARMACEUTICALS, published 2012)
